Assay results as given in paper doi:10.1101/2022.02.17.480751 (bioRxiv, 2022).

Legend:
[1] = target: SARS-CoV-2 S1 (residues 1-682, Wuhan-Hu-1), Strep-tagged (SARS-CoV-2, Wuhan-Hu-1, UniProt P0DTC2); test: ELISA
[2] = target: SARS-CoV-2 S receptor-binding domain (RBD, residues 329-538, Wuhan-Hu-1), Strep-tagged (SARS-CoV-2, Wuhan-Hu-1, UniProt P0DTC2); test: ELISA

B1: REGN10933 (recombinant human IgG1/kappa) (antibody, V domains shown)
VH: QVQLVESGGGLVKPGGSLRLSCAASGFTFSDYYMSWIRQAPGKGLEWVSYITYSGSTIYYADSVKGRFTISRDNAKSSLYLQMNSLRAEDTAVYYCARDRGTTMVPFDYWGQGTLVTVSS
VL: DIQMTQSPSSLSASVGDRVTITCQASQDITNYLNWYQQKPGKAPKLLIYAASNLETGVPSRFSGSGSGTDFTFTISGLQPEDIATYYCQQYDNLPLTFGGGTKVEIK
[1]
  binding result: binds

B2: 87G7 human monoclonal antibody (recombinant human IgG1/kappa) (antibody, V domains shown)
VH: EVQLLESGGGLVQPGGSLRLSCVASGFTFSSYVMSWVRQAPGKGLEWVAAISGSGGNTYYADSVKGRFTISRDNSKNTLYLQMNSLRAEDTAVYYCAKEGTYYYGSGSFWGQGTLVTVSS
VL: EIVLTQSPATLSLSPGERATLSCRASQSFHNYLAWYQQKPGRAPRLLIFDASNRATGIPARFSGSGSGTDFTLTISSLEPEDFAVYYCQQRFNWPLTFGGGTKVEIK
[1]
  binding result: binds
[2]
  binding result: binds

B3: REGN10987 (recombinant human IgG1/kappa) (antibody, V domains shown)
VH: QVQLVESGGGVVQPGRSLRLSCAASGFTFSNYAMYWVRQAPGKGLEWVAVISYDGSNKYYADSVKGRFTISRDNSKNTLYLQMNSLRTEDTAVYYCASGSDYGDYLLVYWGQGTLVTVSS
VL: QSALTQPASVSGSPGQSITISCTGTSSDVGGYNYVSWYQQHPGKAPKLMIYDVSKRPSGVSNRFSGSKSGNTASLTISGLQSEDEADYYCNSLTSISTWVFGGGTKLTVL
[1]
  binding result: binds
